The supplement of paper PMC12042874
± gives the uncertainty stated by the source.

Assay: amyloid nucleation score (Sup35N fusion, yeast selection) (log enrichment); library NNK3; higher = more nucleation; inactive = no reads after selection
Outline: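 In psi-negative yeast, Sup35N fusions carrying peptides of 20 random codons were induced with 100 μM copper sulfate for 24 hours. The cells then grew 7 days at 30°C on medium lacking adenine and uracil, and plasmid inserts from input and output were Illumina-sequenced, excluding sequences with under 100 input reads. Nucleation score is the DiMSum log enrichment of output over input reads, centred on the mode score of non-aggregating sequences.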
With VVDYTARWHRSYSSNGQRRM the amyloid nucleation score was “inactive”. With DLSPRYL the amyloid nucleation score was “inactive”. In the case of RCDNKF, the amyloid nucleation score is reported as 1.2 ± 0.17. MYQDPCIHSVCCWIM gave an amyloid nucleation score of 1.28 ± 0.096. Substance IINATVCHCM has an amyloid nucleation score of 3.33 ± 0.077. Work on NFSVTYEFFGQSI yielded an amyloid nucleation score of 0.292 ± 0.32. In the case of HGGCC, the amyloid nucleation score is reported as “inactive”. For TNQALTMNCHPG, the amyloid nucleation score was “inactive”. In the case of VCFNYDLFYMIRMGFEAVHI, the amyloid nucleation score is reported as “inactive”. RLVDLAWRCYKIDKCLTCSS showed an amyloid nucleation score of -0.589 ± 0.93. For MGMLNGSSSMSDGYVYGGLW, the amyloid nucleation score was “inactive”. With VCYDVCGRGWTCQY the amyloid nucleation score was -0.011 ± 0.42. With RPAGLWVTMWIYPVLRSTYV the amyloid nucleation score was “inactive”. For SAEVF, the amyloid nucleation score was “inactive”. For INVDWFSPFGVLKNSSK, the amyloid nucleation score was “inactive”. With EEDKLFCGVMWQFG the amyloid nucleation score was “inactive”. In the case of RPFLCYLTAPASMNNTLNQV, the amyloid nucleation score is reported as “inactive”. For PCICMVIQSGLDEYAYHVQR, the amyloid nucleation score was “inactive”. With KKCHGMMCNTITRTINILC the amyloid nucleation score was “inactive”. With TGSTDRHYGRYIGWGANSRF the amyloid nucleation score was “inactive”. In the case of WHSMSCFSPKLGWDQFPVLR, the amyloid nucleation score is reported as “inactive”. For GMQALIVFSSVVMRYAFVEG, the amyloid nucleation score was -1.18 ± 1.7. In the case of VMKPSNVVQGSMNPESSLGM, the amyloid nucleation score is reported as “inactive”. In the case of LNAEIL, the amyloid nucleation score is reported as “inactive”. With TCSYANHMSKVFEVVMV the amyloid nucleation score was “inactive”. In the case of FMVGR, the amyloid nucleation score is reported as “inactive”. YFLKDKPVNRMIQ gave an amyloid nucleation score of 1.75 ± 0.083. For VIGQGLCWGFSTVDIP, the amyloid nucleation score was “inactive”. GCVMVKSSLMFSLLR gave an amyloid nucleation score of -0.883 ± 1.2. With CKEHLHQLFMGRCSTV the amyloid nucleation score was “inactive”. Substance TMCCACVFLSSSGWEFNYGL has an amyloid nucleation score of 2.35 ± 0.081. In the case of FISSSSTRILQYGRYTVEIN, the amyloid nucleation score is reported as “inactive”. In the case of ESDITICS, the amyloid nucleation score is reported as “inactive”. In the case of NSVRYLTWVAFLVCLMAYML, the amyloid nucleation score is reported as “inactive”. In the case of EFGDFVDKASMLNIWDGIVG, the amyloid nucleation score is reported as “inactive”. With SSNRGFIIMFEFLASWGFLA the amyloid nucleation score was “inactive”. With RVSSFMSLTVGRYGKLHRDS the amyloid nucleation score was “inactive”. With SDGNSMLGDFRVRMVCHMLL the amyloid nucleation score was “inactive”. For WASLGINR, the amyloid nucleation score was “inactive”. For TLSCTKVTP, the amyloid nucleation score was “inactive”. In the case of NWGSYSMDMRSCSGINRRP, the amyloid nucleation score is reported as “inactive”. For LLSLAYVMRYI, the amyloid nucleation score was 1.38 ± 0.068. With QSSMLHL the amyloid nucleation score was “inactive”. With AYLGLLNSAKFFKYLRSYAW the amyloid nucleation score was “inactive”. With LLPKVLLP the amyloid nucleation score was “inactive”. In the case of EKMDLPRAYGDIRTPKEVVR, the amyloid nucleation score is reported as 0.788 ± 0.12. With IMPPEFVFIFHRMNGHYLGF the amyloid nucleation score was “inactive”. For IYLLGMYIKACSG, the amyloid nucleation score was “inactive”. For FFDTTYLLNSGMNVVLDAYF, the amyloid nucleation score was 1.76 ± 0.097. With MFNSFTNWLRQDQCRTIIGS the amyloid nucleation score was “inactive”. With MTLHAILFLTRSLDALYLLT the amyloid nucleation score was “inactive”. For SAMFTGNLYFDFVDPCYSGW, the amyloid nucleation score was “inactive”. With TLGVRIHCGEFNLYDHSRVK the amyloid nucleation score was 0.875 ± 0.26. For MSYSFKAISAHNKQSVNNVW, the amyloid nucleation score was “inactive”. For TPLGSQLALESDFFYTPNRC, the amyloid nucleation score was “inactive”. For QPLARRIGHISV, the amyloid nucleation score was “inactive”. With LNILVTC the amyloid nucleation score was “inactive”. With FPVYQCWLSN the amyloid nucleation score was “inactive”. RLSYRVNCLRCPNFWNRHMS gave an amyloid nucleation score of 1.93 ± 0.11. With PRGWWPMGFSCGYFVFALTP the amyloid nucleation score was “inactive”. With NGWYKVGLMA the amyloid nucleation score was “inactive”. In the case of YSQFCYIVHLVIGMVDSRRC, the amyloid nucleation score is reported as “inactive”. TAIVIMTYYTIRGFRTIGMW showed an amyloid nucleation score of -0.174 ± 0.22. With TWWSLGSVELVLWFKSCCDF the amyloid nucleation score was 1.44 ± 0.083. With YDCMSRVLAMARATMCRLGD the amyloid nucleation score was “inactive”. For STLLRDEML, the amyloid nucleation score was “inactive”. With TWKQDWDNFSYVLNSSSHST the amyloid nucleation score was “inactive”. For DIFVDN, the amyloid nucleation score was “inactive”. FNCGPCIVLEWYFTSVAGQG gave an amyloid nucleation score of 2.1 ± 0.071. For IISMFYSSKA, the amyloid nucleation score was “inactive”. With CDVFVSY the amyloid nucleation score was “inactive”. For GDTHESFVGRTVYPDRLESH, the amyloid nucleation score was “inactive”. With FIWVFCD the amyloid nucleation score was “inactive”. In the case of LCPRFGEEWCC, the amyloid nucleation score is reported as “inactive”. With GIEADYSYMSGEGKAVCSSM the amyloid nucleation score was “inactive”. With VYIWRIMTTEIWVRVTWYAG the amyloid nucleation score was “inactive”. For AEFYERLPFDIPLHSYFNAW, the amyloid nucleation score was “inactive”. In the case of LPILHSRPVIQETL, the amyloid nucleation score is reported as “inactive”. In the case of EVCQCRPTTVSLARVGRIVV, the amyloid nucleation score is reported as “inactive”. For GQPAH, the amyloid nucleation score was “inactive”. In the case of LFRFS, the amyloid nucleation score is reported as “inactive”. In the case of LQYHRLGQLPRQNRDTVLLL, the amyloid nucleation score is reported as “inactive”. For YANFVRYNRLVKDRAVRSPK, the amyloid nucleation score was “inactive”. With AYSYAYGHCRYGSEVS the amyloid nucleation score was “inactive”. In the case of DCILGGSMMGRNTSMSAHDN, the amyloid nucleation score is reported as “inactive”. In the case of TASVRVRFPLSFTPCLEVHP, the amyloid nucleation score is reported as “inactive”. In the case of NNNFRKDSS, the amyloid nucleation score is reported as “inactive”. For SCGSSH, the amyloid nucleation score was “inactive”. For SELQYISLIYCDNRVCLHAL, the amyloid nucleation score was “inactive”. With LENFRCPVEGAVQERFGANL the amyloid nucleation score was “inactive”. With GSTVEYTFGDWKYQDMSSVC the amyloid nucleation score was “inactive”. In the case of CVLCYRWSHMVLTPGMTGRD, the amyloid nucleation score is reported as “inactive”. With LAVYPTGTDRDFGF the amyloid nucleation score was “inactive”. In the case of ACCQTDRFRFEVALVGFVVG, the amyloid nucleation score is reported as “inactive”. For NTPGYSELIVFGST, the amyloid nucleation score was “inactive”. With SREFSGCNNV the amyloid nucleation score was “inactive”. With WLNKWTHGVIANFYVVSGHP the amyloid nucleation score was 1.64 ± 0.075. With ARSDGLF the amyloid nucleation score was “inactive”. With VGYAKYPSNRVRIYRGFENV the amyloid nucleation score was “inactive”. For KDLYIIIITRMYRIFKS, the amyloid nucleation score was “inactive”. Substance TNLACWVTFCPNCMMLDYLG has an amyloid nucleation score of 2.21 ± 0.064. For VNEERGNYVWSCIMRYHLWD, the amyloid nucleation score was “inactive”. For NVFIHLFTILALGFHL, the amyloid nucleation score was “inactive”. In the case of KMDLTGWTI, the amyloid nucleation score is reported as “inactive”. For MSVSSCLTPGDGNESHWNSR, the amyloid nucleation score was “inactive”. With KASVSTRFMII the amyloid nucleation score was “inactive”. RVWHLYTMV showed an amyloid nucleation score of -1.11 ± 1.9. RGFAVSF gave an amyloid nucleation score of -0.678 ± 0.89. In the case of PRSANSARCVTISSNMEHSR, the amyloid nucleation score is reported as “inactive”. In the case of NLGLQDFNCNWGFTYGGLTK, the amyloid nucleation score is reported as “inactive”. In the case of SQLCITNSRW, the amyloid nucleation score is reported as “inactive”. In the case of DTYGVVCEVYAILWMNRPLR, the amyloid nucleation score is reported as “inactive”. For SDGSTRQSVRRVATPNVSRY, the amyloid nucleation score was “inactive”. In the case of NSYEEWSKWHFSNWSGFSGC, the amyloid nucleation score is reported as “inactive”. For PELRRLTMESYIRNFWSVLS, the amyloid nucleation score was “inactive”. For ARISEFTESWNRRCYTLRYC, the amyloid nucleation score was “inactive”. For VGTLRSAGIIMVSRELVMRV, the amyloid nucleation score was “inactive”. For SIYCANQRSLVYHYVLAFTT, the amyloid nucleation score was “inactive”. For VLGCFVVKGSKFVDLPEFHR, the amyloid nucleation score was 1.3 ± 0.085. In the case of FKLRTDIAMDINVGQDLSGL, the amyloid nucleation score is reported as “inactive”. With CRYDKSSLDY the amyloid nucleation score was “inactive”. In the case of KYGFAVRPFDTGSRMSHFCW, the amyloid nucleation score is reported as “inactive”. In the case of PVSYVLEEVEPRVRVSGPSG, the amyloid nucleation score is reported as “inactive”. For NVDGVVLDCLSSLDSEWGYV, the amyloid nucleation score was “inactive”. In the case of ISPSYVQSDQFIGRTHVS, the amyloid nucleation score is reported as “inactive”. For SCNNDPFTNDNASLVRLGRE, the amyloid nucleation score was “inactive”. In the case of TARPSNKMNHRECCTNKFFP, the amyloid nucleation score is reported as “inactive”. For KRFMDLTHIESSRAKVYRVT, the amyloid nucleation score was “inactive”. Work on HSSSYCSSYKERSIPWSW yielded an amyloid nucleation score of 0.93 ± 0.12. With ICFVSCKLFFVDSLCFCFAG the amyloid nucleation score was “inactive”. With HMVSTDVTENLWFRQ the amyloid nucleation score was “inactive”. In the case of YLMYLGSFSAMLREKWQL, the amyloid nucleation score is reported as “inactive”. In the case of DVMTKDQ, the amyloid nucleation score is reported as “inactive”. With GAQKYSFPRVSWPILGRIDY the amyloid nucleation score was “inactive”. For HLTHVYVADSVGLKLFVYHP, the amyloid nucleation score was 1.9 ± 0.072. For EATPSSIQAQ, the amyloid nucleation score was “inactive”. For AGGSLWKAL, the amyloid nucleation score was “inactive”. For IMCRLMSKVYTMPQYEILSF, the amyloid nucleation score was “inactive”. Work on VCGIYYVFLAGWEHKSRSKE yielded an amyloid nucleation score of 1.86 ± 0.089. For MDRASVCLEGGMSMVWLRYV, the amyloid nucleation score was “inactive”. In the case of ILGEWLFCSIIFWGVWDYAG, the amyloid nucleation score is reported as “inactive”. Substance YMGCIYIPYVKFYFKM has an amyloid nucleation score of 1.26 ± 0.081. With TGFYDCNLGLDLCIAIWVCS the amyloid nucleation score was -0.156 ± 0.34. For CCSMARAITISGNVELKFD, the amyloid nucleation score was “inactive”. GTDVRS showed an amyloid nucleation score of -0.272 ± 0.43. With YFRAFMFETS the amyloid nucleation score was “inactive”. Substance CLFCSALEL has an amyloid nucleation score of 1.99 ± 0.072. Work on IYAGS yielded an amyloid nucleation score of -0.633 ± 0.96. Substance LGGYFLFNIITVGSTGMRKH has an amyloid nucleation score of 2.06 ± 0.089. TLSYRMFINKPSGMMCEHFN gave an amyloid nucleation score of 1.05 ± 0.11. For CYYRCDCLCMTWWGHRVIVV, the amyloid nucleation score was “inactive”. In the case of RSSSCVLFTAGTQNNRVFVV, the amyloid nucleation score is reported as “inactive”. Work on LFNNFYLVSFGWLDGG yielded an amyloid nucleation score of 2.31 ± 0.068. With SDIIM the amyloid nucleation score was “inactive”. For FFLIEQFYTYWMGGIMMIQR, the amyloid nucleation score was “inactive”. For NRIVTVLMFCWLEG, the amyloid nucleation score was “inactive”. In the case of QTMAAYLYSWNNTV, the amyloid nucleation score is reported as “inactive”. For EFCIRRIM, the amyloid nucleation score was “inactive”. Substance SLGQLYDLGSRW has an amyloid nucleation score of -0.805 ± 1.7. With NRSPLCLKC the amyloid nucleation score was “inactive”. For KYKVDIMLRIARSTVFSDSF, the amyloid nucleation score was “inactive”. With GFSNFQEVVGILYCQFWVLL the amyloid nucleation score was 1.33 ± 0.075.
